According to paper PMC5735301 (Oncogene, 2017):
Several values for one entry are separate records, joined by “and”; a condition that tells them apart may be missing. Identical values can stand only once.

Biological target: the molecule itself

B1: RXRα (protein of Supplementary Figure S1f; tetramer and dimer) (natural protein)
chain: MDTKHFLPLDFSTQVNSSLTSPTGRGSMAAPSLHPSLGPGIGSPGQLHSPISTLSSPINGMGPPFSVISSPMGPHSMSVPTTPTLGFSTGSPQLSSPMNPVSSSEDIKPPLGLNGVLKVPAHPSGNMASFTKHICAICGDRSSGKHYGVYSCEGCKGFFKRTVRKDLTYTCRDNKDCLIDKRQRNRCQYCRYQKCLAMGMKREAVQEERQRGKDRNENEVESTSSANEDMPVERILEAELAVEPKTETYVEANMGLNPSSPNDPVTNICQAADKQLFTLVEWAKRIPHFSELPLDDQVILLRAGWNELLIASFSHRSIAVKDGILLATGLHVHRNSAHSAGVGAIFDRVLTELVSKMRDMQMDKTELGCLRAIVLFNPDSKGLSNPAEVEALREKVYASLEAYCKHKYPEQPGRFAKLLLRLPALRSIGLKCLEHLFFFKLIGDTPIDTFLMEMLEAPHQMT
For B1, the “stoichiometry N” value was 4 and 2.
